Measured values published in US20220177587A1, “METHODS AND USES OF VARIANT CD80 FUSION PROTEINS AND RELATED CONSTRUCTS” (Alpine Immune Sciences, Inc., priority 2018, published 2022).

Columns and labels:
[1] = molecular target: CD28 (human) (UniProt P10747); experiment: flow cytometry, Jurkat/IL2 reporter cells (CD28)
[2] = molecular target: PD-L1 (human) (UniProt Q9NZQ7); experiment: flow cytometry, CHO cells expressing huPD-L1
[3] = molecular target: human CTLA-4 (human) (UniProt P16410); experiment: flow cytometry, CHO cells expressing huCTLA-4
[4] = molecular target: PD-L1 (human) (UniProt Q9NZQ7); experiment: flow cytometry, CHO cells stably expressing PD-L1
[5] = molecular target: human CTLA-4 (human) (UniProt P16410); experiment: flow cytometry, CHO cells stably expressing CTLA4
[6] = molecular target: PD-L1 (human) (UniProt Q9NZQ7); experiment: flow cytometry, MFI on PD-L1 cells over MFI on CD28 cells
[7] = molecular target: CD28 (human) (UniProt P10747); experiment: flow cytometry, Jurkat cells (CD28)

Sequence of human CTLA-4 (human) (P16410 36-223): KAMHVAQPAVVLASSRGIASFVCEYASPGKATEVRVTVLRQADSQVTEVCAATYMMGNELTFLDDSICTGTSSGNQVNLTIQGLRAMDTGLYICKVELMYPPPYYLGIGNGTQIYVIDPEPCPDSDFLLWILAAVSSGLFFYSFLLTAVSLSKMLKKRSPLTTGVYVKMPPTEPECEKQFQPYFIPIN
Sequence of PD-L1 (human) (Q9NZQ7 19-290): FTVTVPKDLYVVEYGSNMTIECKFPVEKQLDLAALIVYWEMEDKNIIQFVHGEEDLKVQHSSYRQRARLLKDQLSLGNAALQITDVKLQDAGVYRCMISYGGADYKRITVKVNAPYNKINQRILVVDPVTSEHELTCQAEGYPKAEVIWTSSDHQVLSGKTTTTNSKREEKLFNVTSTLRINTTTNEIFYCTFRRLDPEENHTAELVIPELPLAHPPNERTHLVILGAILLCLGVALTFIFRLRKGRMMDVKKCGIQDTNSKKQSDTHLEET

Substance	MFI at 33.3 nM [1]	MFI at 33.3 nM [2]	MFI at 33.3 nM [3]	Fold change to WT CD80 [4]	MFI at 33.3 nM [4]	Fold change to WT CD80 [5]	MFI at 33.3 nM [5]	Ratio of PDL1:CD28 [6]	Fold change to WT CD80 [7]	MFI at 33.3 nM [7]
variant CD80 IgV-Fc V68M (Fc fusion)	37.9 MFI	118 MFI	568 MFI	–	–	–	–	–	–	–
variant CD80 IgV-Fc L85Q (Fc fusion)	35 MFI	97 MFI	3000 MFI	–	–	–	–	–	–	–
variant CD80 IgV-Fc M47V/K89N (Fc fusion)	197 MFI	622 MFI	32400 MFI	–	–	–	–	–	–	–
variant CD80 IgV-Fc E35D (Fc fusion)	134 MFI	2580 MFI	42900 MFI	–	–	–	–	–	–	–
variant CD80 IgV-Fc V68M/L85Q (Fc fusion)	91.7 MFI	347 MFI	3290 MFI	–	–	–	–	–	–	–
variant CD80 IgV-Fc M47L/V68M/L85Q (Fc fusion)	60.9 MFI	4040 MFI	11100 MFI	–	–	–	–	–	–	–
variant CD80 IgV-Fc K89N (Fc fusion)	56.3 MFI	52.8 MFI	944 MFI	–	–	–	–	–	–	–
variant CD80 IgV-Fc H18Y/E35D/M47L/V68M/A71G (Fc fusion)	–	–	–	697 fold	30400 MFI	17.4 fold	23700 MFI	32.7	21.1 fold	928 MFI
variant CD80 IgV-Fc H18Y/A26E/M47L/A71G/D90G (Fc fusion)	–	–	–	407 fold	17700 MFI	18.7 fold	25400 MFI	8.7	46.6 fold	2050 MFI
variant CD80 IgV-Fc N48K/K89N (Fc fusion)	170 MFI	–	4370 MFI	–	–	–	–	–	–	–
variant CD80 IgV-Fc M47V/V68M/K89N (Fc fusion)	1320 MFI	11800 MFI	24800 MFI	–	–	–	–	–	–	–
variant CD80 IgV-Fc M47V/N48K (Fc fusion)	413 MFI	3080 MFI	44600 MFI	–	–	–	–	–	–	–
variant CD80 IgV-Fc H18Y/A26E/M47L/V68M/D90G (Fc fusion)	–	–	–	541 fold	23600 MFI	21.1 fold	28600 MFI	737	0.7 fold	32 MFI
variant CD80 IgV-Fc A26E/E35D/M47L/V68M/A71G/D90G (Fc fusion)	–	–	–	693 fold	30200 MFI	16 fold	21700 MFI	13.7	50.4 fold	2210 MFI
variant CD80 IgV-Fc N48K (Fc fusion)	60.1 MFI	481 MFI	4950 MFI	–	–	–	–	–	–	–
variant CD80 IgV-Fc E35D/M47L/V68M/L85Q (Fc fusion)	159 MFI	15300 MFI	28100 MFI	–	–	–	–	–	–	–
variant CD80 IgV-Fc N48K/V68M (Fc fusion)	118 MFI	754 MFI	2340 MFI	–	–	–	–	–	–	–
variant CD80 IgV-Fc H18Y/E35D/M47L/V68M/A71G/D90G (Fc fusion)	–	–	–	687 fold	29900 MFI	14.6 fold	19900 MFI	10.7	63.6 fold	2790 MFI
variant CD80 IgV-Fc H18Y/A26E/E35D/V68M/D90G (Fc fusion)	–	–	–	532 fold	23200 MFI	14.2 fold	19300 MFI	9	58.9 fold	2580 MFI
variant CD80 IgV-Fc H18Y/A26E/M47L/V68M/A71G (Fc fusion)	–	–	–	682 fold	29700 MFI	16 fold	21700 MFI	54.7	12.4 fold	544 MFI
